The text below walks through data of paper PMC8547449 (2021).

The target in this assay is T1, C4b-binding protein (human, UniProt P04003 49-597; P20851 18-252).
T1 chain 1: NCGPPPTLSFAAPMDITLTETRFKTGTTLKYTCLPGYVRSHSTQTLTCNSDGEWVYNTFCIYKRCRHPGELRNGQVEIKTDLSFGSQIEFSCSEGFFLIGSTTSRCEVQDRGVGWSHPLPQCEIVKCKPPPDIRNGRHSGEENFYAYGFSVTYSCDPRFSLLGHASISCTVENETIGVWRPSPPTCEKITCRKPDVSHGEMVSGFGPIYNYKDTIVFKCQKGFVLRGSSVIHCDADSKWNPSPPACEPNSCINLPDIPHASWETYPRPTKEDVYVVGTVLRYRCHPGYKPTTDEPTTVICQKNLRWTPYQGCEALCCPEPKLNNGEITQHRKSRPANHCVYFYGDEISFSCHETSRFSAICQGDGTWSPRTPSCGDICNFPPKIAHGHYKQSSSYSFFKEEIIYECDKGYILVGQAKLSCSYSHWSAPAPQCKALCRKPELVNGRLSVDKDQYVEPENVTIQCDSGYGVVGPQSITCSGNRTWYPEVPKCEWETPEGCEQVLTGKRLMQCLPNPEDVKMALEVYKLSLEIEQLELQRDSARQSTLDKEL
T1 chain 2: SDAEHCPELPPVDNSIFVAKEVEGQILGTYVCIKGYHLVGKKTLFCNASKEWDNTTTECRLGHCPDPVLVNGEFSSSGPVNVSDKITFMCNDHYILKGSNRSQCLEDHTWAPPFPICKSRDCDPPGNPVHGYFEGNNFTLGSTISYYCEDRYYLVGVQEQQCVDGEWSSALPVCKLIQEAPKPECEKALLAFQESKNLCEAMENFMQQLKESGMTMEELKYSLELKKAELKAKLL
Nature of the assay: SPR.

B1: M28 protein, recombinant, affinity tag removed by TEV protease (natural protein)
chain: AESPKSTETSANGADKLADAYNTLLTEHEKLRDEYYTLIDAKEEEPRYKALRGENQDLREKEGKYQDKIKKLEEKEKNLEKKSEDVERHYLKKLDQEHKEQEERQKNLEELERQSQREIDKRYQEQLQKQQQLETEKQISEASRKSLSRDLEASRAAKKDLEAEHQKLKEEKQISDASRQGLSRDLEASRAAKKDLEAEHQKLKEEKQISDASRQGLSRDLEASREAKKKVEADLAEANSKLQALEKLNKELEEGKKLSEKEKAELQARLEAEAKALKEQLAKQAEELAKLKGNQTPNAKVAPQANRSRSAMTQQKR
As a reminder, the Kd is a measure of binding affinity in units of concentration. A low value points to tighter binding. In turn, B1 gave a Kd of 0.188 nM.
